Experiments:
[1] = target: T1, Ep-CAM on the surface of HT-29 human colorectal carcinoma cells (human, UniProt P16422 24-314); assay: competition with 125I-labeled chimeric ING-1 on HT-29 cells
T1 construct: The gene was obtained from HT-29 mRNA; also called epithelial cell adhesion molecule; Ep-CAM expressing HT-29 cells
T1 sequence: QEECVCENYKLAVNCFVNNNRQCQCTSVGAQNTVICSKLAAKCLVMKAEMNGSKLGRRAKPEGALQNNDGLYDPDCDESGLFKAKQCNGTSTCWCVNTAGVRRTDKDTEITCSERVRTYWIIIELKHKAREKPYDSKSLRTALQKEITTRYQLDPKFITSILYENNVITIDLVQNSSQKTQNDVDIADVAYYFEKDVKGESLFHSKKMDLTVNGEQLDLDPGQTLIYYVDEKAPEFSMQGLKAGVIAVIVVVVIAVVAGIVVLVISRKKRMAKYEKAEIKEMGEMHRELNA
From the text: Vectors constructed according to Example 1 encoding human engineered ING-1 light and heavy chain genes, for example, pING1937 (low risk human engineered ING-1) and pING1944 (low plus moderate risk human engineered ING-1) were linearized by XbaI and used to transfect serum-free adapted CHO-K1 followed by selection of G418-resistant transfectants. Protein was purified from shake flask culture supernatants by passage over a protein A column. To evaluate the binding activity of the produced immunoglobulin polypeptides, competition binding assays with the human carcinoma cell line HT-29 were performed. This colorectal carcinoma cell line expresses a molecule known as Ep-CAM on its surface. Ep-CAM is recognized by immunoglobulin polypeptides having the antigen binding specificity of the mouse-human chimeric ING-1 antibody produced by cell line HB9812 as produced by ATCC.
HT-29 cells were grown to confluency (˜2×10⁵ cells/well) in 96 well plates. Mouse-human chimeric ING-1 was labeled with Na¹²⁵I (Iodo-gen®, Pierce). The competition conditions included in a 100 μl assay volume, 0.1 nM labeled mouse-human chimeric ING-1, 2-fold serial dilutions of unlabeled immunoglobulin polypeptides, for example, as produced by cells transfected with pING1937 and pING1944. […] Labeled cells were removed with NaOH and counted. […]

[2] = target: T2, soluble human Ep-CAM (human, UniProt P16422 24-265); assay: ELISA, soluble Ep-CAM coated at 0.25 ug/mL, detection with AP-goat anti-human IgG
T2 construct: It was truncated by a stop codon at amino acid position 266 and secreted from CHO-K1 cells (pING1954, Clone 51); No signal peptide limits are stated; Multimers were seen on a non-reduced gel; also called sEp-CAM; truncated Ep-CAM
T2 sequence: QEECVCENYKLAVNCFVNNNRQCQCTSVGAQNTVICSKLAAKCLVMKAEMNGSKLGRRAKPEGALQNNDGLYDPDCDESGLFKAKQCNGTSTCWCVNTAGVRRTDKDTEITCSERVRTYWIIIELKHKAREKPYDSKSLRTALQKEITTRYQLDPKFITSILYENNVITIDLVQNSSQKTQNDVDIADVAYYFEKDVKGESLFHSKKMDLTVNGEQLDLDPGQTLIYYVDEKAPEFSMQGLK

[3] = target: T1, Ep-CAM on the surface of HT-29 human …; assay: competition binding on HT-29 cells (FIG. 16)
Procedure: HT-29 cells were grown to confluency (˜2×10⁵ cells/well) in 96 well plates. Mouse-human chimeric ING-1 was labeled with Na¹²⁵I (Iodo-gen®, Pierce). The competition conditions included in a 100 μl assay volume, 0.1 nM labeled mouse-human chimeric ING-1, 2-fold serial dilutions of unlabeled immunoglobulin polypeptides, for example, as produced by cells transfected with pING1937 and pING1944. The labeled and unlabeled immunoglobulin polypeptides were incubated with HT-29 cells at 4° C. for 5 hours followed by washing. Labeled cells were removed with NaOH and counted. Data analysis was performed using Ligand, [Munson and Redbard, […] 107: 220-239 (1980)].
Human engineered ING-1 modified at the low risk plus moderate risk positions was also evaluated using competition binding assays. No differences in binding between the mouse-human chimeric and the human engineered (low risk) ING-1 was observed.

[4] = target: T1, Ep-CAM on the surface of HT-29 human …; assay: competition with iodinated low risk ING-1 on HT-29 cells (FIG. 17)

Row | Binder | binding result [1] | binding result [4] | further results
1 | human engineered (low risk) ING-1 (antibody, human IgG1, kappa, It has 6 low risk changes in VL and 13 in VH; also called human engineered ING-1; ING-1(heMab)) VL: DIVMTQSALSNPVTLGESGSISCRSSKSLLHSNGITYLYWYLQKPGQSPQLLIYQMSNRASGVPDRFSSSGSGTDFTLKISRVEAEDVGVYYCAQNLELPRTFGQGTKLEMKRTVAAPSVFIFPPSDEQLKSGTASVVCLLNNFYPREAKVQWKVDNALQSGNSQESVTEQDSKDSTYSLSSTLTLSKADYEKHKVYACEVTHQGLSSPVTKSFNRGEC VH: not shown | binds | – | binding result [2]: binds
2 | human engineered (low plus moderate risk) ING-1 (antibody, human IgG1, kappa, IgG with human kappa and gamma-1 constant regions, built like pING1937; It has 10 low plus moderate risk changes in VL and 20 in VH; also called product of pING1944) VL: DIVMTQSPLSLPVTPGEPGSISCRSSKSLLHSNGITYLYWYLQKPGQSPQLLIYQMSNRASGVPDRFSSSGSGTDFTLKISRVEAEDVGVYYCAQNLELPRTFGQGTKLEMKRTVAAPSVFIFPPSDEQLKSGTASVVCLLNNFYPREAKVQWKVDNALQSGNSQESVTEQDSKDSTYSLSSTLTLSKADYEKHKVYACEVTHQGLSSPVTKSFNRGEC VH: not shown | – | – | binding result [3]: binds
3 | modified ING-1 with low plus moderate risk light chain and low risk heavy chain (antibody, human IgG1, kappa, It is an IgG purified on protein A with human kappa and gamma-1 constant regions; also called low risk heavy chain with a low plus moderate risk light chain) VL: DIVMTQSPLSLPVTPGEPGSISCRSSKSLLHSNGITYLYWYLQKPGQSPQLLIYQMSNRASGVPDRFSSSGSGTDFTLKISRVEAEDVGVYYCAQNLELPRTFGQGTKLEMKRTVAAPSVFIFPPSDEQLKSGTASVVCLLNNFYPREAKVQWKVDNALQSGNSQESVTEQDSKDSTYSLSSTLTLSKADYEKHKVYACEVTHQGLSSPVTKSFNRGEC VH: not shown | – | binds | –
4 | modified ING-1 with low risk light chain and low plus moderate risk heavy chain (antibody, human IgG1, kappa, It is an IgG purified on protein A with human kappa and gamma-1 constant regions; also called combination of a low risk light chain with a low plus moderate risk heavy chain) VL: DIVMTQSALSNPVTLGESGSISCRSSKSLLHSNGITYLYWYLQKPGQSPQLLIYQMSNRASGVPDRFSSSGSGTDFTLKISRVEAEDVGVYYCAQNLELPRTFGQGTKLEMKRTVAAPSVFIFPPSDEQLKSGTASVVCLLNNFYPREAKVQWKVDNALQSGNSQESVTEQDSKDSTYSLSSTLTLSKADYEKHKVYACEVTHQGLSSPVTKSFNRGEC VH: not shown | – | binds | –
5 | mouse-human chimeric ING-1 antibody (as produced by cell line HB9812, ATCC) (antibody, human IgG1, kappa, V domains shown, The labelled tracer form was iodinated with Na125I) VH: QIQLVQSGPELKKPGETVKISCKASGYTFTKYGMNWVKQAPGKGLKWMGWINTYTEEPTYGDDFKGRFAFSLETSASTANLQINNLKSEDTATYFCARFGSAVDYWGQGTSVTVSS VL: DIVMTQAAFSNPVTLGTSGSISCRSSKSLLHSNGITYLYWYLQKPGQSPQLLIYQMSNLASGVPDRFSSSGSGTDFTLRISRVEAEDVGVYYCAQNLELPRTFGGGTKLEMKR | binds | – | –

From patent US20080241126A1 (XOMA TECHNOLOGY, published 2008)
